These are literature values, as cited in patent publication US11358994B2, “Fatty acid modified human epidermal growth factor” (Saint Louis University, priority 2017, dated 2022).

For the data set the following is noted: species not stated.

For “hEGF: 6 kD protein made of 53 amino acids (SEQ ID NO: 1)”, the half-life in vivo was approximately 2 min.
